In this experiment the target is recombinant wild type echinenone-binding protein from Evechinus chloroticus (apo-rEBP) (Evechinus chloroticus). The experiment can be described thus: SEC; HiPrep 16/60 Sephacryl S-100 HR gel-permeation column, non-reducing conditions, 50 mM HEPES pH 8.0, 0.1 M NaCl, 10% v/v glycerol; final purification step; molecular weights estimated from the manufacturer's column standard curve.

Among the data in publication PMC4156332 are stoichiometry N values, retold here.

As for “recombinant wild type echinenone-binding protein from Evechinus chloroticus (apo-rEBP) (natural protein)”, the stoichiometry N – broadly, the number of molecules, sites or subunits per partner or assembly – is 2.
